Test results: publication PMC11199644, “Structural and mechanistic insights into a lysosomal membrane enzyme HGSNAT involved in Sanfilippo syndrome” (Nature Communications, 2024)

Target: the molecule itself
Experiment: cryo-EM structure; purified HGSNAT in 20 mM HEPES pH 7.4, 150 mM NaCl, 0.01% GDN; apo (two conformations) or with acetyl-CoA, CoA, acetyl-CoA + MU-βGlcN, CoA + MUF-NAG; six structures, all dimers

B1: heparan sulfate acetyl-CoA:α-glucosaminide N-acetyltransferase (HGSNAT) (enzyme, human, UniProt Q68CP4-2 1-635, looked up)
chain: MSGAGRALAALLLAASVLSAALLAPGGSSGRDAQAAPPRDLDKKRHAELKMDQALLLIHNELLWTNLTVYWKSECCYHCLFQVLVNVPQSPKAGKPSAAAASVSTQHGSILQLNDTLEEKEVCRLEYRFGEFGNYSLLVKNIHNGVSEIACDLAVNEDPVDSNLPVSIAFLIGLAVIIVISFLRLLLSLDDFNNWISKAISSRETDRLINSELGSPSRTDPLDGDVQPATWRLSALPPRLRSVDTFRGIALILMVFVNYGGGKYWYFKHASWNGLTVADLVFPWFVFIMGSSIFLSMTSILQRGCSKFRLLGKIAWRSFLLICIGIIIVNPNYCLGPLSWDKVRIPGVLQRLGVTYFVVAVLELLFAKPVPEHCASERSCLSLRDITSSWPQWLLILVLEGLWLGLTFLLPVPGCPTGYLGPGGIGDFGKYPNCTGGAAGYIDRLLLGDDHLYQHPSSAVLYHTEVAYDPEGILGTINSIVMAFLGVQAGKILLYYKARTKDILIRFTAWCCILGLISVALTKVSENEGFIPVNKNLWSLSYVTTLSSFAFFILLVLYPVVDVKGLWTGTPFFYPGMNSILVYVGHEVFENYFPFQWKLKDNQSHKEHLTQNIVATALWVLIAYILYRKKIFWKI
notes: human HGSNAT, open reading frame of UniProt Q68CP4-2 (short isoform 2, 28 residues from the N-terminal missing); The purified sample held two species, the full-length protein and the auto-cleaved form (alpha and beta chains still together); A thrombin site lies between HGSNAT and the tags, so some residues of it may be left after cleavage; also called TMEM76; heparan-α-glucosaminide …
- stoichiometry N: 2
